Results: PMC10713628, “UniKP: a unified framework for the prediction of enzyme kinetic parameters” (Nature Communications, 2023)

Columns and labels:
TrTAL = tested on: T1, TrTAL; test: coumaric acid formation at […] nm; type: biochemical, Tephrocybe rancida; conditions: Tris-HCl, 40 °C, 30 min; pH 9.5 in table note (buffer pH 8.5 in methods)
T1 construct: gene TAL; codon-optimised synthetic gene in pET32a, E. coli BL21(DE3); purified; tags not described

TALclu = tested on: T2, TALclu; test: coumaric acid formation at […] nm; type: biochemical, Chryseobacterium luteum; conditions: Tris-HCl, 40 °C, 30 min; pH 9.5 in table note (buffer pH 8.5 in methods)
T2 construct: gene TAL; codon-optimised synthetic gene in pET32a, E. coli BL21(DE3) per general method; purified; tags not described

PpTAL = tested on: T3, PpTAL; test: coumaric acid formation at […] nm; type: biochemical, Pleurotus pulmonarius; conditions: Tris-HCl, 40 °C, 30 min; pH 9.5 in table note (buffer pH 8.5 in methods)
T3 construct: gene TAL; codon-optimised synthetic gene in pET32a, E. coli BL21(DE3); purified; tags not described

LeTAL = tested on: T4, LeTAL; test: coumaric acid formation at […] nm; type: biochemical, Lentinula edodes; conditions: Tris-HCl, 40 °C, 30 min; pH 9.5 in table note (buffer pH 8.5 in methods)
T4 construct: gene TAL; codon-optimised synthetic gene in pET32a, E. coli BL21(DE3); purified; tags not described

[1] = tested on: N[C@@H](Cc1ccc(O)cc1)C(=O)O; test: purified protein; conditions: Tris-HCl, 40 °C, 30 min, pH 9.5 in table note (buffer pH 8.5 in methods)
[2] = tested on: T5, N[C@@H](Cc1ccc(O)cc1)C(=O)O; test: purified protein; type: biochemical, Rhodotorula glutinis; conditions: Tris-HCl, 40 °C, 30 min, pH 9.5 in table note (buffer pH 8.5 in methods)
T5 construct: full length 693 residues; pET32a, E. coli BL21(DE3); purified; tags not described

purified protein [3] = substrate: N[C@@H](Cc1ccc(O)cc1)C(=O)O; test: purified protein; type: biochemical, Rhodotorula glutinis; conditions: Tris-HCl, 40 °C, 30 min, pH 9.5 in table note (buffer pH 8.5 in methods)
purified protein [4] = substrate: N[C@@H](Cc1ccc(O)cc1)C(=O)O; test: purified protein; type: biochemical, Armillaria solidipes; conditions: Tris-HCl, 40 °C, 30 min, pH 9.5 in table note (buffer pH 8.5 in methods)

N[C@@H](Cc1ccc(O)cc1)C(=O)O [L-tyrosine]
Km (TrTAL): 40 µM | Km (TALclu): 50 µM | Km (PpTAL): 40 µM | Km (LeTAL): 70 µM

AaTAL (Aspergillus arachidicola)
Km [1]: 30 µM | kcat [1]: 25.2 s⁻¹ | kcat/Km [1]: 841000 M⁻¹ s⁻¹

IsTAL (Ilyonectria sp. MPI-CAGE-AT-0026)
Km [1]: 570 µM | kcat [1]: 120 s⁻¹ | kcat/Km [1]: 210000 M⁻¹ s⁻¹

PcTAL (Puccinia coronata f. sp. avenae)
Km [1]: 170 µM | kcat [1]: 66.6 s⁻¹ | kcat/Km [1]: 392000 M⁻¹ s⁻¹

RgTAL (Rhodotorula glutinis; E366H)
Km [2]: 480 µM | kcat [2]: 40.3 s⁻¹ | kcat/Km [2]: 84000 M⁻¹ s⁻¹

RgTAL (Rhodotorula glutinis; E366W)
Km [2]: 850 µM | kcat [2]: 31 s⁻¹ | kcat/Km [2]: 36500 M⁻¹ s⁻¹

RgTAL (Rhodotorula glutinis; E587V)
Km [2]: 330 µM | kcat [2]: 163 s⁻¹ | kcat/Km [2]: 494000 M⁻¹ s⁻¹

RgTAL (Rhodotorula glutinis; I668S)
Km [2]: 3850 µM | kcat [2]: 53.6 s⁻¹ | kcat/Km [2]: 13900 M⁻¹ s⁻¹

RgTAL (Rhodotorula glutinis; K603P)
Km [2]: 1150 µM | kcat [2]: 52.6 s⁻¹ | kcat/Km [2]: 45700 M⁻¹ s⁻¹

RgTAL (Rhodotorula glutinis; Q10Y)
Km [2]: 820 µM | kcat [2]: 884 s⁻¹ | kcat/Km [2]: 1.08e+06 M⁻¹ s⁻¹

RgTAL (Rhodotorula glutinis; Q337C)
Km [2]: 6480 µM | kcat [2]: 96.8 s⁻¹ | kcat/Km [2]: 14900 M⁻¹ s⁻¹

RgTAL (Rhodotorula glutinis; Q337D)
Km [2]: 850 µM | kcat [2]: 34.8 s⁻¹ | kcat/Km [2]: 40900 M⁻¹ s⁻¹

RgTAL (Rhodotorula glutinis; R489T)
Km [2]: 710 µM | kcat [2]: 817 s⁻¹ | kcat/Km [2]: 1.15e+06 M⁻¹ s⁻¹

B1: RgTAL (Rhodotorula glutinis) (protein)
chain: MAPRPTSQSQARTCPTTQVTQVDIVEKMLAAPTDSTLELDGYSLNLGDVVSAARKGRPVRVKDSDEIRSKIDKSVEFLRSQLSMSVYGVTTGFGGSADTRTEDAISLQKALLEHQLCGVLPSSFDSFRLGRGLENSLPLEVVRGAMTIRVNSLTRGHSAVRLVVLEALTNFLNHGITPIVPLRGTISASGDLSPLSYIAAAISGHPDSKVHVVHEGKEKILYAREAMALFNLEPVVLGPKEGLGLVNGTAVSASMATLALHDAHMLSLLSQSLTAMTVEAMVGHAGSFHPFLHDVTRPHPTQIEVAGNIRKLLEGSRFAVHHEEEVKVKDDEGILRQDRYPLRTSPQWLGPLVSDLIHAHAVLTIEAGQSTTDNPLIDVENKTSHHGGNFQAAAVANTMEKTRLGLAQIGKLNFTQLTEMLNAGMNRGLPSCLAAEDPSLSYHCKGLDIAAAAYTSELGHLANPVTTHVQPAEMANQAVNSLALISARRTTESNDVLSLLLATHLYCVLQAIDLRAIEFEFKKQFGPAIVSLIDQHFGSAMTGSNLRDELVEKVNKTLAKRLEQTNSYDLVPRWHDAFSFAAGTVVEVLSSTSLSLAAVNAWKVAAAESAISLTRQVRETFWSAASTSSPALSYLSPRTQILYAFVREELGVKARRGDVFLGKQEVTIGSNVSKIYEAIKSGRINNVLLKMLA
notes: full length 693 residues; pET32a, E. coli BL21(DE3); purified; tags not described
Km (purified protein [3]): 360 µM | kcat (purified protein [3]): 118 s⁻¹ | kcat/Km (purified protein [3]): 327000 M⁻¹ s⁻¹

B2: AsTAL (Armillaria solidipes) (protein)
chain: MPASVFDDINSETKSGKGVGGVSGAHRTPSLLAKFLDSHKELKSYRNGRPVKVDGHTLSIAAVTAAARYNATVDLDGSPQVKAGVMKSRAVIADKVDNGTSVYGVSTGFGGSADTRTDQPLKLGQALLQHQHAGVLPSSDRTLDVLPLLDPMASTSMPESWVRGAMLVRMNSLIRGHSGVRWELLEKINELLRANITPVVPLRSSISASGDLSPLSYVAGTLVANPSIRVFDGPKKFGARKMVSSKDALASHGIQPISLVSKEGLGILNGTAFSASVASLALNDAVHLALLAQICTALGTEALSGTLGNYAPFIHATARPHPGQVESARHIWNLLRGSKLATTHEEEVSINQDKYSLRQDRYPLRTAPQFLGPQIEDILSALSTVIQECNSTTDNPLIDGETGEVHHGGNFQAMAVSNAMEKTRLALHHIGRLLFAQSTELVNPVMNHGLPPSLAASDPSLNYHGKGVDIATAAYVAELGYLAGPVTTHIQSAEMHNQAVNSLALISARATVNALEVLTMLMSSYLYLLCQAVDLRALRREFNTGLKSILSEELSAILGSQLSSQEIDISVSSMWGVVQTTLDKTTTMDAVDQMREVATACIPALIETVSRTNAINNALSSISQFRTNVASKATKLMAELRSSYLLGGRGPAPAGPYLGKTRAVYEYIRITLGVKMHGIENLGSFPNGLGVDDVTIGQNITAIFEAIRDGNFQDAVADLFEVLPHVKL
notes: codon-optimised synthetic gene in pET32a, E. coli BL21(DE3); purified; tags not described
Km (purified protein [4]): 540 µM | kcat (purified protein [4]): 449 s⁻¹ | kcat/Km (purified protein [4]): 831000 M⁻¹ s⁻¹
